In the assay the target is FBF-1/CSR-1 heterodimer (GST-FBF-1 with His6-CSR-1(MID-PIWI)) (C. elegans) (UniProt Q9N5M6). Put plainly: pull-down.

As to Recombinant EFT-3 (natural protein), the stoichiometry N – broadly, the number of molecules, sites or subunits per partner or assembly – worked out at 1.

Source of the values: publication PMC3293257.
